Data: US7244431B2, “Allergy vaccines and their preparation” (priority 2000, dated 2007)

Assays:
[1] = test system: IgE antibodies in sera from birch pollen allergic patients; assay: ELISA detection of peptide- and rBet v 1-specific IgE antibodies; format: binding, human
Outline: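 Sera from 60 birch pollen allergic patients (rhinoconjunctivitis and/or asthma; skin prick and CAP RAST characterized) plus one non-atopic individual, diluted 1:3, incubated overnight at 4 °C on coated plates. Bound IgE detected with 1:1000 alkaline-phosphatase-coupled mouse anti-human IgE.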

[2] = test system: basophilic granulocytes of birch pollen allergic individuals; assay: Basophil histamine-release assay; format: cell-based, human; conditions: 10^−3-10 μg/ml
Description: Granulocytes were isolated from heparinized blood samples of 3 birch pollen allergic individuals by dextran sedimentation (Valent, P. et al. (1989) Interleukin 3 activates human blood basophils via high-affinity binding sites. Proc. Natl. Sci. USA 86, 5542-5547). […] Histamine released in the cell-free culture supernatant was measured by radioimmunoassay (Immunotech, Marseille, France). Total histamine was determined after freezing and thawing of cells.

[3] = test system: birch pollen allergic patients; assay: Skin prick testing of allergic patients; format: in vivo, human
Description: SPTs were performed on the individuals forearms as described ([…]. et al. (1997) J. Clin Invest. 99, 1673-168; Dreborg S: (1989) J. Am. Acad. DerMatol. 21, 820-821). […] In addition standardized skin prick solutions (birch pollen extract and histamine) (Allergopharma, Reinbek, Germany) were tested. Reactions were recorded 20 minutes after SPT by photography and by transferring the ballpoint pen-surrounded wheal area with a scotch tape to paper.

[4] = all 60 birch pollen allergic patients

B1: rBet v 1: purified recombinant Bet v 1, major birch pollen allergen, purchased from BIOMAY (protein)
chain: GVFNYETETTSVIPAARLFKAFILDGDNLFPKVAPQAISSVENIEGNGGPGTIKKISFPEGFPFKYVKDRVDEVDHTNFKYNYSVIEGGPIGDTLEKISNEIKIVATPDGGSILKISNKYHTKGDHEVKAEQVKASKEMGETLLRAVESYLLAHSDAYN
rBet v1-specific IgE antibodies, mean [1, 4]: 1.416 OD units
rBet v1-specific IgE antibodies, range [1, 4]: 0.081-2.530 OD units
IgE (OD) ([1]; serum of NHS, non-allergic control individual): 0.048 OD
IgE (OD) ([1]; serum of patient 1): 0.829 OD
IgE (OD) ([1]; serum of patient 2): 1.380 OD
IgE (OD) ([1]; serum of patient 3): 2.144 OD
IgE (OD) ([1]; serum of patient 4): 0.701 OD
IgE (OD) ([1]; serum of patient 5): 0.344 OD
IgE (OD) ([1]; serum of patient 6): 2.300 OD
IgE (OD) ([1]; serum of patient 7): 2.245 OD
IgE (OD) ([1]; serum of patient 9): 0.196 OD
IgE (OD) ([1]; serum of patient 10): 0.097 OD
IgE (OD) ([1]; serum of patient 11): 0.428 OD
IgE (OD) ([1]; serum of patient 12): 0.271 OD
IgE (OD) ([1]; serum of patient 13): 0.281 OD
IgE (OD) ([1]; serum of patient 14): 0.704 OD
IgE (OD) ([1]; serum of patient 20): 0.249 OD
IgE (OD) ([1]; serum of patient 21): 0.461 OD
IgE (OD) ([1]; serum of patient 22): 0.258 OD
IgE (OD) ([1]; serum of patient 23): 1.555 OD
IgE (OD) ([1]; serum of patient 25): 0.5 OD
IgE (OD) ([1]; serum of patient 26): 0.191 OD
IgE (OD) ([1]; serum of patient 27): 0.535 OD
IgE (OD) ([1]; serum of patient 28): 0.492 OD
IgE (OD) ([1]; serum of patient 29): 0.154 OD
IgE (OD) ([1]; serum of patient 30): 0.081 OD
IgE (OD) ([1]; serum of patient 32): 0.195 OD
IgE (OD) ([1]; serum of patient 33): 0.106 OD
IgE (OD) ([1]; serum of patient 34): 0.377 OD
IgE (OD) ([1]; serum of patient 36): 0.306 OD
IgE (OD) ([1]; serum of patient 38): 1.571 OD
IgE (OD) ([1]; serum of patient 40): 0.084 OD
IgE (OD) ([1]; serum of patient 43): 0.363 OD
IgE (OD) ([1]; serum of patient 44): 2.386 OD
IgE (OD) ([1]; serum of patient 45): 0.289 OD
IgE (OD) ([1]; serum of patient 47): 0.381 OD
IgE (OD) ([1]; serum of patient 48): 1.422 OD
IgE (OD) ([1]; serum of patient 49): 0.379 OD
IgE (OD) ([1]; serum of patient 51): 0.307 OD
IgE (OD) ([1]; serum of patient 54): 1.310 OD
IgE (OD) ([1]; serum of patient 55): 2.489 OD
IgE (OD) ([1]; serum of patient 56): 2.530 OD
IgE (OD) ([1]; serum of patient 57): 0.741 OD
IgE (OD) ([1]; serum of patient 58): 0.072 OD
IgE (OD) ([1]; serum of patient 59): 0.168 OD
induction of histamine release [2]: dose-dependent release of histamine
concentration inducing immediate type skin reactions in three patients (#1-3) ([3]; human, in vivo): < 0.78 µg/mL
concentration sufficient to induce wheal reactions in all five birch pollen allergic patients ([3]; human, in vivo): 3.12 µg/mL
mean wheal diameter ([3]; individual 1, rBet v 1 0.39 μg/ml): 2.5 mm
mean wheal diameter ([3]; individual 1, rBet v 1 0.78 μg/ml): 4 mm
mean wheal diameter ([3]; individual 1, rBet v 1 1.56 μg/ml): 4.5 mm
mean wheal diameter ([3]; individual 1, rBet v 1 3.12 μg/ml): 5 mm
mean wheal diameter ([3]; individual 1, rBet v 1 6.25 μg/ml): 6 mm
mean wheal diameter ([3]; individual 1, rBet v 1 12.5 μg/ml): 13 mm
mean wheal diameter ([3]; individual 2, rBet v 1 0.39 μg/ml): 2 mm
mean wheal diameter ([3]; individual 2, rBet v 1 0.78 μg/ml): 3.5 mm
mean wheal diameter ([3]; individual 2, rBet v 1 1.56 μg/ml): 5 mm
mean wheal diameter ([3]; individual 2, rBet v 1 3.12 μg/ml): 5.5 mm
mean wheal diameter ([3]; individual 2, rBet v 1 6.25 μg/ml): 7 mm
mean wheal diameter ([3]; individual 2, rBet v 1 12.5 μg/ml): 7.5 mm
mean wheal diameter ([3]; individual 2, rBet v 1 25 μg/ml): 8 mm
mean wheal diameter ([3]; individual 3, rBet v 1 0.78 μg/ml): 2 mm
mean wheal diameter ([3]; individual 3, rBet v 1 1.56 μg/ml): 3 mm
mean wheal diameter ([3]; individual 3, rBet v 1 3.12 μg/ml): 4 mm
mean wheal diameter ([3]; individual 3, rBet v 1 6.25 μg/ml): 6 mm
mean wheal diameter ([3]; individual 3, rBet v 1 12.5 μg/ml): 6.5 mm
mean wheal diameter ([3]; individual 3, rBet v 1 25 μg/ml): 8 mm
mean wheal diameter ([3]; individual 4, rBet v 1 3.12 μg/ml): 2 mm
mean wheal diameter ([3]; individual 4, rBet v 1 6.25 μg/ml): 3 mm
mean wheal diameter ([3]; individual 4, rBet v 1 12.5 μg/ml): 4 mm
mean wheal diameter ([3]; individual 4, rBet v 1 25 μg/ml): 4.5 mm
mean wheal diameter ([3]; individual 5, rBet v 1 1.56 μg/ml): 2 mm
mean wheal diameter ([3]; individual 5, rBet v 1 3.12 μg/ml): 2.5 mm
mean wheal diameter ([3]; individual 5, rBet v 1 6.25 μg/ml): 4 mm
mean wheal diameter ([3]; individual 5, rBet v 1 12.5 μg/ml): 11 mm
mean wheal diameter ([3]; individual 5, rBet v 1 25 μg/ml): 5 mm
